From the supplement of paper PMC11246515
± gives the standard deviation of the averaged measurements.

Assay: total protein half-life in vivo (active degradation + dilution); higher = more stable protein
[1] = E. coli NCM3722 delta-clpP delta-lon delta-hslV, growth: N-lim chemostat, doubling time 6 h
[2] = E. coli NCM3722 delta-clpP, growth: N-lim chemostat, doubling time 6 h
[3] = E. coli NCM3722 delta-hslV, growth: N-lim chemostat, doubling time 6 h
[4] = E. coli NCM3722 delta-lon, growth: N-lim chemostat, doubling time 6 h
[5] = E. coli NCM3722 delta-smpB, growth: N-lim chemostat, doubling time 6 h
[6] = wild type E. coli NCM3722, growth: C-lim chemostat, doubling time 3 h
[7] = wild type E. coli NCM3722, growth: C-lim chemostat, doubling time 6 h
[8] = wild type E. coli NCM3722, growth: C-lim chemostat, doubling time 12 h
[9] = wild type E. coli NCM3722, growth: N-lim chemostat, doubling time 6 h
[10] = wild type E. coli NCM3722, growth: N-lim chemostat, doubling time 12 h
[11] = wild type E. coli NCM3722, growth: P-lim chemostat, doubling time 6 h
[12] = wild type E. coli NCM3722, growth: P-lim chemostat, doubling time 12 h

Sequence | total protein half-life in vivo [1] [h] | total protein half-life in vivo [2] [h] | total protein half-life in vivo [3] [h] | total protein half-life in vivo [4] [h] | total protein half-life in vivo [5] [h] | total protein half-life in vivo [6] [h] | total protein half-life in vivo [7] [h] | total protein half-life in vivo [8] [h] | total protein half-life in vivo [9] [h] | total protein half-life in vivo [10] [h] | total protein half-life in vivo [11] [h] | total protein half-life in vivo [12] [h]
MKTALLLEKLEGQLATLRQRCAPVSQFATLSARFDRHLFQTRATTLQACLDEAGDNLAALRHAVEQQQLPQVAWLAEHLAAQLEAIAREASAWSLREWDSAPPKIARWQRKRIQHQDFERRLREMVAERRARLARVTDLVEQQTLHREVEAYEARLARCRHALEKIENRLARLTR | 4.68 ± 0.36 | 2.5 ± 0.12 | 2.39 ± 0.15 | 4.09 ± 0.54 | 2.21 ± 0.046 | 1.955 ± 0.0034 | 3.69 ± 0.51 | 6.06 ± 3.5 | 2.58 ± 0.12 | 2.85 ± 0.6 | 2.92 ± 0.094 | 5.17 ± 0.34
MALNTPQITPTKKITVRAIGEELPRGDYQRCPQCDMLFSLPEINSHQSAYCPRCQAKIRDGRDWSLTRLAAMAFTMLLLMPFAWGEPLLHIWLLGIRIDANVMQGIWQMTKQGDAITGSMVFFCVIGAPLILVTSIAYLWFGNRLGMNLRPVLLMLERLKEWVMLDIYLVGIGVASIKVQDYAHIQAGVGLFSFVALVILTTVTLSHLNVEELWERFYPQRPATRRDEKLRVCLGCHFTGYPDQRGRCPRCHIPLRLRRRHSLQKCWAALLASIVLLLPANLLPISIIYLNGGRQEDTILSGIMSLASSNIAVAGIVFIASILVPFTKVIVMFTLLLSIHFKCQQGLRTRILLLRMVTWIGRWSMLDLFVISLTMSLINRDQILAFTMGPAAFYFGAAVILTILAVEWLDSRLLWDAHESGNARFDD [P0AD03] |  | 3.28 |  | 4.34 | 4.47 |  |  |  | 4.43 |  | 3.99 | 6.67 ± 0.85
MKTAYIAKQRQISFVKSHFSRQLEERLGLIEVQAPILSRVGDGTQDNLSGCEKAVQVKVKALPDAQFEVVHSLAKWKRQTLGQHDFSAGEGLYTHMKALRPDEDRLSPLHSVYVDQWDWERVMGDGERQFSTLKSTVEAIWAGIKATEAAVSEEFGLAPFLPDQIHFVHSQELLSRYPDLDAKGRERAIAKDLGAVFLVGIGGKLSDGHRHDVRAPDYDDWSTPSELGHAGLNGDILVWNPVLEDAFELSSMGIRVDADTLKHQLALTGDEDRLELEWHQALLRGEMPQTIGGGIGQSRLTMLLLQLPHIGQVQCGVWPAAVRESVPSLL | 2.59 ± 0.04 | 4.18 ± 2.2 | 3.06 ± 0.71 |  | 2.771 ± 0.0098 | 2.53 ± 0.085 | 2.9 ± 0.16 | 5.26 ± 0.4 | 2.29 ± 0.19 | 4.02 ± 1 | 2.37 ± 0.58 | 5.24 ± 1.9
MIRLSEQSPLGTGRHRKCYAHPEDAQRCIKIVYHRGDGGDKEIRRELKYYAHLGRRLKDWSGIPRYHGTVETDCGTGYVYDVIADFDGKPSITLTEFAEQCRYEEDIAQLRQLLKQLKRYLQDNRIVTMSLKPQNILCHRISESEVIPVVCDNIGESTLIPLATWSKWCCLRKQERLWKRFIAQPALAIALQKDLQPRESKTLALTSREA | 3.47 |  |  |  |  | 3.22 | 7.68 | 10.7 |  |  |  | 
MNAVTEGRKVLLEIADLKVHFEIKDGKQWFWQPPKTLKAVDGVTLRLYEGETLGVVGESGCGKSTFARAIIGLVKATDGHVAWLGKELLGMKPDEWRAVRSDIQMIFQDPLASLNPRMTIGEIIAEPLRTYHPKMSRQEVRERVKAMMLKVGLLPNLINRYPHEFSGGQCQRIGIARALILEPKLIICDEPVSALDVSIQAQVVNLLQQLQREMGLSLIFIAHDLAVVKHISDRVLVMYLGHAVELGTYDEVYHNPLHPYTRALMSAVPIPDPDLEKNKTIQLLEGELPSPINPPSGCVFRTRCPIAGPECAKTRPVLEGSFRHSVSCLKVDPL | 5.54 ± 0.093 | 5.82 ± 0.9 | 4.61 ± 0.15 | 4.14 ± 0.14 | 6.25 ± 1.4 | 2.65 ± 0.51 | 6.13 ± 1.6 | 10.3 ± 0.15 | 5.03 ± 0.17 | 8.26 ± 0.85 | 5.69 ± 0.078 | 12.15 ± 0.025
MTISELLQYCMAKPGAEQSVHNDWKATQIKVEDVLFAMVKEVENRPAVSLKTSPELAELLRQQHSDVRPSRHLNKAHWSTVYLDGSLPDSQIYYLVDASYQQAVNLLPEEKRKLLVQL [P0AF50] | 6.83 ± 0.78 | 5.39 ± 0.71 | 5.05 | 5.47 ± 0.13 | 4.39 | > 4 | 4.6917 ± 0.0045 | 7.14 ± 1.4 | 3.752 ± 0.03 | 8.4 ± 3 | 4.6 ± 1.2 | 9.9 ± 0.1
MADTRPERRFTRIDRLPPYVFNITAELKMAARRRGEDIIDFSMGNPDGATPPHIVEKLCTVAQRPDTHGYSTSRGIPRLRRAISRWYQDRYDVEIDPESEAIVTIGSKEGLAHLMLATLDHGDTVLVPNPSYPIHIYGAVIAGAQVRSVPLVEGVDFFNELERAIRESYPKPKMMILGFPSNPTAQCVELEFFEKVVALAKRYDVLVVHDLAYADIVYDGWKAPSIMQVPGARDVAVEFFTLSKSYNMAGWRIGFMVGNKTLVSALARIKSYHDYGTFTPLQVAAIAALEGDQQCVRDIAEQYKRRRDVLVKGLHEAGWMVEMPKASMYVWAKIPEPYAAMGSLEFAKKLLNEAKVCVSPGIGFGDYGDTHVRFALIENRDRIRQAIRGIKAMFRADGLLPASSKHIHENAE | 4.48 ± 0.37 | 4.17 ± 0.25 | 2.21 ± 0.2 | 2.27 ± 0.23 | 2.22 ± 0.062 | 2.43 ± 0.15 | 3.92 ± 0.59 | 7.44 ± 1.7 | 2.28 ± 0.1 | 2.92 ± 0.049 | 4.75 ± 0.82 | 7.31 ± 0.3
